The values that follow come from paper doi:10.1101/2021.04.16.440108 (bioRxiv, 2021).

Sequences and labels used below:
B1: IκBα (natural protein, UniProt P25963 1-317, looked up)
chain: MFQAAERPQEWAMEGPRDGLKKERLLDDRHDSGLDSMKDEEYEQMVKELQEIRLEPQEVPRGSEPWKQQLTEDGDSFLHLAIIHEEKALTMEVIRQVKGDLAFLNFQNNLQQTPLHLAVITNQPEIAEALLGAGCDPELRDFRGNTPLHLACEQGCLASVGVLTQSCTTPHLHSILKATNYNGHTCLHLASIHGYLGIVELLVSLGADVNAQEPCNGRTALHLAVDLQNPDLVSLLLKCGADVNRVTYQGYSPYQLTWGRPSTRIQQQLGQLTLENLQMLPESEDEESYDTESEFTEFTEDELPYDDCVFGGQRLTL
B2: Transgelin 3 (TAGLN3) (natural protein, human, UniProt Q9UI15 1-199, looked up)
chain: MANRGPSYGLSREVQEKIEQKYDADLENKLVDWIILQCAEDIEHPPPGRAHFQKWLMDGTVLCKLINSLYPPGQEPIPKISESKMAFKQMEQISQFLKAAETYGVRTTDIFQTVDLWEGKDMAAVQRTLMALGSVAVTKDDGCYRGEPSWFHRKAQQNRRGFSEEQLRQGQNVIGLQMGSNKGASQAGMTGYGMPRQIM

The target of the series “Transgelin 3 (TAGLN3)” is B2. Put plainly: nanoDSF. (In general: DSF heats the sample and reads unfolding from a dye or from intrinsic fluorescence.)
The series “IκBα” addresses B1. Put plainly: nanoDSF.

As to B1, the “Tm of TAGLN3 with 6-fold excess of IκBα (free TAGLN3: 56.8°C)” value in the series with Transgelin 3 (TAGLN3) came to 61 °C.

Turning to B2, in the series with IκBα, the dissociation constant (Kd) (commonly the concentration at which binding is half-saturated) was 10 µM.
